From PMC8960874 come the findings set out here.

In general, Kd refers to the free concentration of one partner at which half of the binding sites on the other are occupied at equilibrium, for simple one-to-one binding. A word on the koff: it is the first-order rate constant of dissociation. A low value points to slow dissociation.

The experiment deals with Clone 16 (Clone 6-KiH-Clone 2) bispecific antibody (mouse | human) [IgG part: P01857]. The experiment in a line: SPR. Particulars: domain or fragment.

On to “SARS-CoV-2 spike receptor binding domain (RBD) protein with a C-terminal hexahistidine tag (from UniProt P0DTC2 319-541)”, for which the Kd was determined as 2.95 nM and the koff was 0.00461 s⁻¹.
